From patent US20200010508A1 (REGENTS OF THE UNIVERSITY OF MICHIGAN, published 2020)
Ends that are not written are not given here.

Experiments:
[1] = molecular target: T1, Glypican-3 on human HCC cells (Hep3B, HepG2) and in HCC tissue (human, UniProt P51654 25-554); experiment: confocal microscopy on cells, ANOVA on log-transformed data
T1 construct: whole, on cells; Endogenous GPC3 on cells; also used here for GPC3 in sections of Hep3B xenografts and human HCC specimens; also called GPC3
Description: (§1) FIGS. 6-2A-Q show validation of specific peptide binding to cells in vitro. On confocal microscopy, we observed strong fluorescence intensity from ALL*-Cy5.5 binding to the surface (arrow) of A) Hep3B and B) HepG2 human HCC cells, and minimal signal with C) SK-Hep1 cells. D-F) Minimal signal is observed with the scrambled control peptide QLE*-Cy5.5 for all cells. Strong binding (arrow) is also observed with AF488-labeled anti-GPC3 antibody used as a positive control for G) Hep3B and H) HepG2 and minimal signal with I) SK-Hep1. […] The Hep3B versus SK-Hep1 difference was also larger for antibody than QLE (P=2.3×10⁻⁸, 6.0-fold larger). Intensity was measured with 6 replicates per condition and fitted to an ANOVA model with terms for 9 means to log-transformed data. […] We further validated specific peptide binding to GPC3 using siRNA knockdown. […] Q) Quantified fluorescence intensities. The siCL vs siGPC3 difference was 7.4 times bigger for ALL than the same difference for QLE (P=7.8×10⁻⁵), and the difference for antibody was 8.9 times bigger than for QLE (P=2.5×10⁻⁵), by ANOVA on log-transformed data. Results are an average of 6 images collected independently.

[2] = molecular target: T1, Glypican-3 on human HCC cells (Hep3B, …); experiment: confocal microscopy, Hep3B siGPC3 vs siCL
Description: The specificity of lead candidate peptide reagent binding was validated by siRNA knockdown of GPC3 in human HCC cells. The cells were transfected with siRNA to knockdown cell surface expression of GPC3. […] These cells were transfected with non-targeting siRNA (siCL) for use as control. […] FIG. 6-1D,E show ˜4-fold reduction in fluorescence intensity with both the peptide reagent and anti-GPC3 antibody, respectively, for Hep3B cells transfected with siRNA (siGPC3) to knock down GPC3 expression. […] FIG. 6-2M, N, O and P show the same result as original FIG. 6-1A, B, D and E.

[3] = molecular target: T1, Glypican-3 on human HCC cells (Hep3B, …); experiment: confocal microscopy of xenograft and normal mouse liver sections, n=26
Method: FIGS. 13A-I show validation of specific peptide binding to GPC3 overexpressed in mouse HCC xenograft tumors. Confocal microscopy of A) ALL*-Cy5.5 compared to B) QLE*-Cy5.5 to sections of Hep3B xenograft tumors. Fluorescence intensities were measured from sets of 3 (dashed white) boxes with dimensions of 20×20 μm2.
The specimens were also sectioned for collection of confocal images to perform microscopic validation of peptide binding ex vivo. We found increased cell surface staining of ALL*-Cy5.5 compared with QLE*-Cy5.5 to Hep3B xenograft (arrow), FIG. 13A,B. Overexpression of GPC3 on cell surface of Hep3B xenograft was confirmed with known antibody, FIG. 13C.

[4] = molecular target: T1, Glypican-3 on human HCC cells (Hep3B, …); experiment: flow cytometry, mean fluorescence of Hep3B cells with 0-200 nM peptide; apparent dissociation constant
Method: (§2) The apparent dissociation constant (kd) was measured for the optimized GPC3 peptide to Hep3B cells to provide an assessment of peptide binding affinity. The ALL*-Cy5.5 peptide reagent was serially diluted in PBS at concentrations ranging from 0 to 200 nM in 25 nM increments and incubated with Hep3B cells. The mean fluorescence intensities was measured on flow cytometry. The equilibrium dissociation constant kd=1/kₐ was calculated by performing a least squares fit of the data to the non-linear equation I=(I₀+Iₘₐₓkₐ[X])/([…]). I₀and Iₘₐₓ are the initial and maximum fluorescence intensities, corresponding to no peptide and at saturation, respectively, and [X] represents the concentration of the bound peptide.

[5] = molecular target: T1, Glypican-3 on human HCC cells (Hep3B, …); experiment: cell-based or functional assay
[6] = molecular target: T1, Glypican-3 on human HCC cells (Hep3B, …); experiment: immunofluorescence on human biopsies, ANOVA on log-transformed data
[7] = molecular target: T1, Glypican-3 on human HCC cells (Hep3B, …); experiment: confocal microscopy on Hep3B cells with siRNA knockdown of GPC3
Description: as §1, with “On” for “FIGS. 6-2A-Q show validation of specific peptide binding to cells in vitro. On”
The specificity of lead candidate peptide reagent binding was validated by siRNA knockdown of GPC3 in human HCC cells. The cells were transfected with siRNA to knockdown cell surface expression of GPC3. […] These cells were transfected with non-targeting siRNA (siCL) for use as control.

[8] = molecular target: T1, Glypican-3 on human HCC cells (Hep3B, …); experiment: affinity restated in the discussion of the studies (flow cytometry on Hep3B cells)
Method: as §2

T1 sequence (P51654 25-554 limits assumed): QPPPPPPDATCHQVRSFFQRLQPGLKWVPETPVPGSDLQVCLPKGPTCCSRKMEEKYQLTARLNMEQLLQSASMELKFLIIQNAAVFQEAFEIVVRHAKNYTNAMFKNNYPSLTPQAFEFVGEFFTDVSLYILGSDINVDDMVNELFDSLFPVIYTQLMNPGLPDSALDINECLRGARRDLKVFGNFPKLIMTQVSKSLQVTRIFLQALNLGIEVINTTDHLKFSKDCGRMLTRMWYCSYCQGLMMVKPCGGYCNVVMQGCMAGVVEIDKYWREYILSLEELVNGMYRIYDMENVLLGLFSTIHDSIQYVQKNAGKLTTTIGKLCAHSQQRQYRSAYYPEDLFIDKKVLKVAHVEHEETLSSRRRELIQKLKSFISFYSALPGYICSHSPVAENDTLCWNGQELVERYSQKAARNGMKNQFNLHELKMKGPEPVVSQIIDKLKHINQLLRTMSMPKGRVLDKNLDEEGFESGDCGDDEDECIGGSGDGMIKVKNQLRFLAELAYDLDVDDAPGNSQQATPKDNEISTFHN

fold, intensity difference Hep3B vs SK-Hep1 against the same difference for QLE* [1] [fold]	fold, intensity difference HepG2 vs SK-Hep1 against the same difference for QLE* [1] [fold]	fold reduction in fluorescence intensity on GPC3 knockdown [2] [fold]	fold, intensity from peptide binding to HCC (Hep3B xenograft) against normal liver [3] [fold]	Kd [4] [nM]	fluorescent intensity of ALL*-Cy5.5 against control peptide QLE*-Cy5.5, in vivo dual axes confocal endomicroscopy [5] [fold]	target-to-background (T/B) ratio at 2 hours, in vivo whole-body NIR fluorescence imaging of Hep3B xenograft [5]	target-to-background ratio of ALL*-Cy5.5 against QLE*-Cy5.5, in vivo NIR laparoscopy [5] [fold]	target-to-background ratio, in vivo NIR laparoscopy of Hep3B xenograft 2 hours after injection [5]	fold, signal in human HCC against adenoma [6] [fold]	fold, signal in human HCC against cirrhosis [6] [fold]	fold, signal in human HCC against normal liver [6] [fold]	fold, siCL vs siGPC3 difference against the same difference for QLE [7] [fold]	Kd [8] [nM]	reduction of T/B ratio of ALL*-Cy5.5 by blocking with 3-fold unlabeled targeting peptide dose [5] [fold]	reduction of T/B ratio of ALL*-Cy5.5 by blocking with 10-fold unlabeled targeting peptide dose [5] [fold]	Binder
8.2	3.3	~4	2.22	71	2.9	3.91	2.8	8.3	2.48	2.05	3.43	7.4	71.3	–	–	ALLANHEELFQTGGGSK(sulfo‑Cy5.5) (also called lead candidate GPC3 peptide; optimized GPC3 peptide) [ALL*-Cy5.5 peptide reagent (ALLANHEELFQT-GGGSK-Cy5.5)]
–	–	–	–	–	–	–	–	–	–	–	–	–	–	1.65	3.56	ALLANHEELFQT [unlabeled ALL* peptide (ALLANHEELFQT)]
–	–	–	–	–	–	1.12	–	3	–	–	–	–	–	–	–	QLELTFHANLEAGGGSK(sulfo‑Cy5.5) [QLE*-Cy5.5 scrambled control peptide (QLELTFHANLEA-GGGSK-Cy5.5)]
